# In patent publication US8163700B2, “Inhibitors of myelin-associated glycoprotein (MAG) activity for regulating neural growth and regeneration” (Research Foundation of City University of New York, priority 2002, dated 2012):
# T1: NgR (Homo sapiens, UniProt Q9BZR6)
# T1 sequence (Q9BZR6 27-447): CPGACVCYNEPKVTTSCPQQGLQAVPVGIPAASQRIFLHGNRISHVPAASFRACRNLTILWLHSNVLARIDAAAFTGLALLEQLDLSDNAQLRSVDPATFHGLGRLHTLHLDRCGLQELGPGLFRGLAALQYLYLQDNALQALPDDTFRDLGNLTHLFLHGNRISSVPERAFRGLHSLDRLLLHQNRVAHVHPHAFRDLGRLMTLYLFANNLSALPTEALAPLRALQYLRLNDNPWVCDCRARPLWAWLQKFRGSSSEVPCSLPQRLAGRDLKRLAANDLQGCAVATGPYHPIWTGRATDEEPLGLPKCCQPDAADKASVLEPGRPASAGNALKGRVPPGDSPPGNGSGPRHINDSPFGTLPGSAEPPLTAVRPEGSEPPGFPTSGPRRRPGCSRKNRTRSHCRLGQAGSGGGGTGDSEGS
# T2: Nogo (Homo sapiens, UniProt Q9NQC3, S458P)
# T2 sequence (Q9NQC3 1-1192 S458P): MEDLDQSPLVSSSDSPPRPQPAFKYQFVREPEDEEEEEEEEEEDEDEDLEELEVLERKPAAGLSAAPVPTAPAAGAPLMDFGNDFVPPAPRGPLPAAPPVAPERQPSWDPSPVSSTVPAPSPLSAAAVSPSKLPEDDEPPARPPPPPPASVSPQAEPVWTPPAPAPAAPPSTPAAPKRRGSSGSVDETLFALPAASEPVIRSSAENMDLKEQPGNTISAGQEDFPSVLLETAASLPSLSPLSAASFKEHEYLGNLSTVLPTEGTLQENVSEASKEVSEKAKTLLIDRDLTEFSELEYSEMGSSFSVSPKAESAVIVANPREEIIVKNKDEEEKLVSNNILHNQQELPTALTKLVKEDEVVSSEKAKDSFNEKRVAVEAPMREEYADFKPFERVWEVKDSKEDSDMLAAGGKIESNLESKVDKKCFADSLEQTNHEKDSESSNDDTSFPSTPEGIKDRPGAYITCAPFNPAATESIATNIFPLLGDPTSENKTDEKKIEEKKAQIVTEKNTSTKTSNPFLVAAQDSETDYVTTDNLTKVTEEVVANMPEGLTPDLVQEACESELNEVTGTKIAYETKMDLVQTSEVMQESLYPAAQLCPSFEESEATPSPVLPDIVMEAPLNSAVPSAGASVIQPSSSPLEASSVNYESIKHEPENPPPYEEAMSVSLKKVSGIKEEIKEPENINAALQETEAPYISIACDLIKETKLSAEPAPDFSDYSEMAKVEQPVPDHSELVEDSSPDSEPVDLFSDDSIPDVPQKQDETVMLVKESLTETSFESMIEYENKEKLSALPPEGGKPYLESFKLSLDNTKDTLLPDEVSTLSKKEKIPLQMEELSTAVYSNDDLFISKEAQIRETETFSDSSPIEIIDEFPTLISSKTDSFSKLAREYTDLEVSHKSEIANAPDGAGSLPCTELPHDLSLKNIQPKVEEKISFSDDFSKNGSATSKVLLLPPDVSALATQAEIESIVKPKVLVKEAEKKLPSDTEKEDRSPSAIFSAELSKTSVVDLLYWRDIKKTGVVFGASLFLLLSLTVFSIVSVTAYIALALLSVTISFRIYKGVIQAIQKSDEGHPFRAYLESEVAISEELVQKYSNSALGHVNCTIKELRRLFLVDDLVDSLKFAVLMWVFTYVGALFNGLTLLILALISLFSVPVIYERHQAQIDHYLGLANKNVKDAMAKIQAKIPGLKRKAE
# B1: MAG: full-length MAG containing all five Ig-like domains, expressed on CHO cells (protein, UniProt P20917 1-627, looked up)
# chain: MIFLATLPLFWIMISASRGGHWGAWMPSTISAFEGTCVSIPCRFDFPDELRPAVVHGVWYFNSPYPKNYPPVVFKSRTQVVHESFQGRSRLLGDLGLRNCTLLLSTLSPELGGKYYFRGDLGGYNQYTFSEHSVLDIVNTPNIVVPPEVVAGTEVEVSCMVPDNCPELRPELSWLGHEGLGEPTVLGRLREDEGTWVQVSLLHFVPTREANGHRLGCQAAFPNTTLQFEGYASLDVKYPPVIVEMNSSVEAIEGSHVSLLCGADSNPPPLLTWMRDGMVLREAVAKSLYLDLEEVTPGEDGVYACLAENAYGQDNRTVELSVMYAPWKPTVNGTVVAVEGETVSILCSTQSNPDPILTIFKEKQILATVIYESQLQLELPAVTPEDDGEYWCVAENQYGQRATAFNLSVEFAPIILLESHCAAARDTVQCLCVVKSNPEPSVAFELPSRNVTVNETEREFVYSERSGLLLTSILTIRGQAQAPPRVICTSRNLYGTQSLELPFQGAHRLMWAKIGPVGAVVAFAILIAIVCYITQTRRKKNVTESSSFSGGDNPHVLYSPEFRISGAPDKYESEKQRLGSERRLLGLRGESPELDLSYSHSDLGKRPTKDSYTLTEELAEYAEIRVK
# modifications: full-length
# notes: full-length MAG containing all five Ig-like domains, expressed on CHO cells
# Legend:
# NgR = biological target: T1, NgR; settings: described in the art; cited from earlier work
# Nogo = biological target: T2, Nogo; settings: described in the art; cited from earlier work
# cerebellar neurons = assay: Neurite outgrowth of cerebellar neurons on CHO cell monolayers expressing MAG or truncated, deleted or chimeric MAG derivatives (FIG. 1); format: cell-based; settings: cerebellar neurons grown overnight on CHO cells expressing the construct, versus control-transfected CHO cells; GAP-43 staining
# Protocol: FIG. 1 Inhibition of neurite outgrowth from cerebellar neurons by truncated MAG or chimeric MAG Cerebellar neurons were isolated (Example 1) and grown overnight on a monolayer of control-transfected CHO cells (clear bar) or a monolayer of CHO cells expressing wild-type MAG or truncated, deleted or chimeric MAG derivatives (grey bars). (See Example 2). Neurons were stained for GAP-43 antigen and neurite length was measured and the average length was calculated for 180-200 neurons (+/−SEM).
# Cerebellar neurons were isolated essentially as described in Doherty et al., Nature, 343, pp. 464-66 (1990); Neuron, 5, pp. 209-19 (1990); and Kleitman et al., Culturing Nerve Cells, pp. 337-78, MIT Press, Cambridge, Mass./London, England (G. Banker and K. Goslin, Eds.) (1991). Briefly, for animals up to nine days of age, the cerebellum was removed from two animals, and placed in 5 ml of 0.025% trypsin in PBS, triturated, and incubated for a further 10 minutes (min) at 37° C. […]
# Confluent monolayers of control, MAG-, truncated MAG- or chimeric MAG-Sn-expressing CHO cells were established over a 24-hour (h) period in individual chambers of an 8-well tissue culture slide (Lab-Tek). […] The length of the longest neurite for each GAP43-positive neuron was determined using the Biological Detection System image analysis program (Pittsburgh).
Molecule,binding to NgR (NgR),inhibition of axonal outgrowth (Nogo),inhibition of neurite outgrowth by the expressed MAG construct (cerebellar neurons)
Nogo-66 amino acid residues 31-55: prior-art peptide of Nogo-66 residues 31-55 (hNogo-A residues 1085-1109 of SEQ ID NO: 9) (EELVQKYSNSALGHVNCTIKELRRL; listed as Homo sapiens),can bind to NgR,inhibit axonal outgrowth,–
B1,–,–,capable of inhibiting neurite outgrowth
